The values that follow come from article PMC7280502, “Structure and mechanism of the Nap adhesion complex from the human pathogen Mycoplasma genitalium” (Nature Communications, 2020).

The target in assay [1] is P140–P110 heterodimer of the purified Nap complex (full-length proteins, P110His strain) (Mycoplasma genitalium G37 (endogenous) | Mycoplasma genitalium G37) (UniProt P20796). The assay can be described thus: cryo-EM structure; single-particle cryo-EM of the Nap complex purified from the M. genitalium P110His strain in octylglucoside, 25 μg/ml; 9.8 Å; rigid-body fitting of P140 alone and P110 alone; closed conformation.

For assay [2], the target named is T1, extracellular region of P140 (residues 23–1351) (Mycoplasma genitalium (strain G37), UniProt P20796 23-1351).
T1 construct: also called extracellular P140; source: E. coli B834 (DE3), purified (Histrap, Superdex 200), same protocol as for P110N
T1 sequence: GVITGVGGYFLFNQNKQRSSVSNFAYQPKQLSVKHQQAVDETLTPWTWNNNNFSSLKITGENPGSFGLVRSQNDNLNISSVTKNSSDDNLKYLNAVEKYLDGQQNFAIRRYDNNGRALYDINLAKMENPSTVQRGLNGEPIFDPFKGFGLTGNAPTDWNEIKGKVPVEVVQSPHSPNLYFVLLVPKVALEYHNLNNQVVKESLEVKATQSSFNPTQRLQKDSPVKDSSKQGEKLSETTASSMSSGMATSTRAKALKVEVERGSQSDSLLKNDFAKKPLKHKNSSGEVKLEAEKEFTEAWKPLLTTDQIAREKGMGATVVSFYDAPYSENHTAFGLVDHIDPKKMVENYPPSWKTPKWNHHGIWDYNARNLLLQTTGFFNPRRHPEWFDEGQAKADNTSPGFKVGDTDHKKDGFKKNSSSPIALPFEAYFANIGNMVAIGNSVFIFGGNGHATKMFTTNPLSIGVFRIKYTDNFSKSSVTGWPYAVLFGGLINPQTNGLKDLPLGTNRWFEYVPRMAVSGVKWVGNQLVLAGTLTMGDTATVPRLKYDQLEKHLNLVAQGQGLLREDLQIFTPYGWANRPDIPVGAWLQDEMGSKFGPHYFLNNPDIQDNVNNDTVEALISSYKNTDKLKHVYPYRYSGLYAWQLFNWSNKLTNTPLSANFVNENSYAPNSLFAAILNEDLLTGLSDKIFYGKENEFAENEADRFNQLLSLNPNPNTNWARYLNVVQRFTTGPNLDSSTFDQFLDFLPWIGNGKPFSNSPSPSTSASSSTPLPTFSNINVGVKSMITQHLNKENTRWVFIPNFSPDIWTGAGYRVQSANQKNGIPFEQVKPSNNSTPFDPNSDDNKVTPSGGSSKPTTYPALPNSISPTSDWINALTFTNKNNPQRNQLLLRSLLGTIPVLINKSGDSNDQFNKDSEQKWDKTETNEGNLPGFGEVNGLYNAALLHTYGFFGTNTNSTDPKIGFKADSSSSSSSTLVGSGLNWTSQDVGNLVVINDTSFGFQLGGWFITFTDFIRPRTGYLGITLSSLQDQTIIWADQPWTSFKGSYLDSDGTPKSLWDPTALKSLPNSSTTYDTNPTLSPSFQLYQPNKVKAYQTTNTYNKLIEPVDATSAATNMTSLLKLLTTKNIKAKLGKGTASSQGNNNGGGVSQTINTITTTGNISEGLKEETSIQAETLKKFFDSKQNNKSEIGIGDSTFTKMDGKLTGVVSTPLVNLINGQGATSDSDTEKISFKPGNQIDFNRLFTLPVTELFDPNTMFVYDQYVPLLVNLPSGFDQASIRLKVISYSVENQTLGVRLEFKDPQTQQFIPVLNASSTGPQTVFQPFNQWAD
As to the kind of experiment: crystal structure; P140 and P110N mixed 1:1 and incubated 30 min at room temperature; crystals from 23% PEG 500MME, 4% PGA, 0.1 M sodium cacodylate pH 6.5, 20 °C; space group P2(1), four heterodimers in the asymmetric unit; 2.65 Å. Conditions: both partners purified.

Assay [3] deals with T1, extracellular region of P140 (residues …). As to the kind of experiment: cryo-EM structure; single-particle cryo-EM of the purified P140–P110 heterodimer (complete extracellular regions) at 20 μg/ml; 4.1 Å, non-isotropic; X-ray P140–P110N structure fitted as a rigid body. Conditions: both partners purified.

Usually stoichiometry N stands for a count of units in the complex or per binding partner. “P140–P110 heterodimer of the purified Nap complex (full-length proteins, P110His strain), P20796 59-1444; P22747 26-1053” registered a stoichiometry N in assay [1] of 2.

B1: N-terminal domain of P110 (P110N: residues 23–827) (domain or fragment)
chain: ALANTFLVKEDSKNVTAYTPFATPITDSKSDLVSLAQLDSSYQIADQTIHNTNLFVLFKSRDVKVKYESSGSNNISFDSTSQGEKPSYVVEFTNSTNIGIKWTMVKKYQLDVPNVSSDMNQVLKNLILEQPLTKYTLNSSLAKEKGKTQREVHLGSGQANQWTSQRNQHDLNNNPSPNASTGFKLTTGNAYRKLSESWPIYEPIDGTKQGKGKDSSGWSSTEENEAKNDAPSVSGGGSSSGTFNKYLNTKQALESIGILFDDQTPRNVITQLYYASTSKLAVTNNHIVVMGNSFLPSMWYWVVERSAQENASNKPTWFANTNLDWGEDKQKQFVENQLGYKETTSTNSHNFHSKSFTQPAYLISGIDSVNDQIIFSGFKAGSVGYDSSSSSSSSSSSSTKDQALAWSTTTSLDSKTGYKDLVTNDTGLNGPINGSFSIQDTFSFVVPYSGNHTNNGTTGPIKTAYPVKKDQKSTVKINSLINATPLNSYGDEGIGVFDALGLNYNFKSNQERLPSRTDQIFVYGIVSPNELRSAKSSADSTGSDTKVNWSNTQSRYLPVPYNYSEGIIDADGFKRPENRGASVTTFSGLKSIAPDGFANSIANFSVGLKAGIDPNPVMSGKKANYGAVVLTRGGVVRLNFNPGNDSLLSTTDNNIAPISFSFTPFTAAESAVDLTTFKEVTYNQESGLWSYIFDSSLKPSHDGKQTPVTDNMGFSVITVSRTGIELNQDQATTTLDVAPSALAVQSGIQSTTQTLTGVLPLSEEFSAVIAKDSDQNKIDIYKNNNGLFEIDTQLSNSVATNNGGL
notes: P110, product of gene MG_192 of Mycoplasma genitalium strain G37, residues 23–827 (N-terminal domain), amplified from a synthetic clone and cloned into pOPINE; source: E. coli B834 (DE3), purified (Histrap, Superdex 200)
As to B1, the binding result in assay [2] is “binds”.

B2: extracellular region of P110 (residues 23–938) (domain or fragment)
chain: ALANTFLVKEDSKNVTAYTPFATPITDSKSDLVSLAQLDSSYQIADQTIHNTNLFVLFKSRDVKVKYESSGSNNISFDSTSQGEKPSYVVEFTNSTNIGIKWTMVKKYQLDVPNVSSDMNQVLKNLILEQPLTKYTLNSSLAKEKGKTQREVHLGSGQANQWTSQRNQHDLNNNPSPNASTGFKLTTGNAYRKLSESWPIYEPIDGTKQGKGKDSSGWSSTEENEAKNDAPSVSGGGSSSGTFNKYLNTKQALESIGILFDDQTPRNVITQLYYASTSKLAVTNNHIVVMGNSFLPSMWYWVVERSAQENASNKPTWFANTNLDWGEDKQKQFVENQLGYKETTSTNSHNFHSKSFTQPAYLISGIDSVNDQIIFSGFKAGSVGYDSSSSSSSSSSSSTKDQALAWSTTTSLDSKTGYKDLVTNDTGLNGPINGSFSIQDTFSFVVPYSGNHTNNGTTGPIKTAYPVKKDQKSTVKINSLINATPLNSYGDEGIGVFDALGLNYNFKSNQERLPSRTDQIFVYGIVSPNELRSAKSSADSTGSDTKVNWSNTQSRYLPVPYNYSEGIIDADGFKRPENRGASVTTFSGLKSIAPDGFANSIANFSVGLKAGIDPNPVMSGKKANYGAVVLTRGGVVRLNFNPGNDSLLSTTDNNIAPISFSFTPFTAAESAVDLTTFKEVTYNQESGLWSYIFDSSLKPSHDGKQTPVTDNMGFSVITVSRTGIELNQDQATTTLDVAPSALAVQSGIQSTTQTLTGVLPLSEEFSAVIAKDSDQNKIDIYKNNNGLFEIDTQLSNSVATNNGGLAPSYTENRVDAWGKVEFADNSVLQARNLVDKTVDEIINTPEILNSFFRFTPAFEDQKATLVATKQSDTSLSVSPRIQFLDGNFYDLNSTIAGVPLNIGFPSRVFAGFAALP
notes: P110, product of gene MG_192 of Mycoplasma genitalium strain G37, residues 23–938 (complete extracellular region), amplified from a synthetic clone; source: E. coli B834 (DE3), purified (Histrap, Superdex 200), same protocol as for P110N
As to B2, in assay [3], the binding result is recorded as “binds”.
